Source: US20130217633A1

What was measured:
[1] = molecular target: Bcl-2 of primary chronic lymphocytic leukemia (CLL) cells (human) (UniProt P10415); test: cell-based or functional assay
[2] = molecular target: wild type Bcl-2 (overexpressed in WEHI7.2 cells) (UniProt P10415); test: cell-based or functional assay
wild type Bcl-2 (overexpressed in WEHI7.2 cells), sequence (P10415 whole entry): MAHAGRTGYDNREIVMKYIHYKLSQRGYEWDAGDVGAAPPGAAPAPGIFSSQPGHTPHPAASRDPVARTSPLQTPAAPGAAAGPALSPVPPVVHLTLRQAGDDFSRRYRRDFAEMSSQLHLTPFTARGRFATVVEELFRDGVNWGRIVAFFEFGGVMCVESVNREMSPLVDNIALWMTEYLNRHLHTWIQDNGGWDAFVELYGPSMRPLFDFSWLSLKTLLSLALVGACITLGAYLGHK

Bcl-2 of primary chronic lymphocytic leukemia (CLL) cells (human), sequence (P10415 whole entry): as above

For “TAT-IDP (IP3R-derived peptide fused with the cell-penetrating peptide of HIV TAT)”, which percentage of primary CLL cells with Ca2+ elevation [1] is on record?
Its percentage of primary CLL cells with Ca2+ elevation is 26%.

What about the Ca^2+ spikes per cell (single cell Ca2+ imaging, Bcl-2-positive WEHI7.2 cells) (Ca^2+ spikes per cell) [2] of the same substance?
The Ca^2+ spikes per cell (single cell Ca2+ imaging, Bcl-2-positive WEHI7.2 cells) (Ca^2+ spikes per cell) was 6.

What about the percentage of Bcl-2-positive WEHI7.2 cells with a sustained pattern of Ca^2+ oscillations (three or more peaks) [2] of the same substance?
Its percentage of Bcl-2-positive WEHI7.2 cells with a sustained pattern of Ca^2+ oscillations (three or more peaks) is 36%.

And the percentage of Bcl-2-positive WEHI7.2 cells with one or two isolated Ca^2+ oscillations [2]?
The percentage of Bcl-2-positive WEHI7.2 cells with one or two isolated Ca^2+ oscillations was 22%.
